*1 amine or outer side, *2 acyl side, *3 side chain or, on linkers, in order; H or OH if unused. Where no end group is shown, it is not given here. Side-chain parts run from the residue outwards. [ ]: non-standard residue; d: D form. The star is where a group is joined. C18 diacid = O=C(O)CCCCCCCCCCCCCCCCC(=O)*; C16 diacid = O=C(O)CCCCCCCCCCCCCCC(=O)*; γGlu = O=C(O)[C@H](CCC(=O)[*:2])N[*:1]; AEEA = NCCOCCOCC(=O)O
B1: SEQ ID NO 147 (peptide)
peptide: IVLSLD[dV]PIKLK([γGlu-γGlu-C16 diacid])QILLKQERQKKQREQAEKNKQILEQV-NH2
modifications: N-terminus assumed
SMILES: CC[C@H](C)[C@H](N)C(=O)N[C@H](C(=O)N[C@@H](CC(C)C)C(=O)N[C@@H](CO)C(=O)N[C@@H](CC(C)C)C(=O)N[C@@H](CC(=O)O)C(=O)N[C@@H](C(=O)N1CCC[C@H]1C(=O)N[C@H](C(=O)N[C@@H](CCCCN)C(=O)N[C@@H](CC(C)C)C(=O)N[C@@H](CCCCNC(=O)CC[C@H](NC(=O)CC[C@H](NC(=O)CCCCCCCCCCCCCCC(=O)O)C(=O)O)C(=O)O)C(=O)N[C@@H](CCC(N)=O)C(=O)N[C@H](C(=O)N[C@@H](CC(C)C)C(=O)N[C@@H](CC(C)C)C(=O)N[C@@H](CCCCN)C(=O)N[C@@H](CCC(N)=O)C(=O)N[C@@H](CCC(=O)O)C(=O)N[C@@H](CCCNC(=N)N)C(=O)N[C@@H](CCC(N)=O)C(=O)N[C@@H](CCCCN)C(=O)N[C@@H](CCCCN)C(=O)N[C@@H](CCC(N)=O)C(=O)N[C@@H](CCCNC(=N)N)C(=O)N[C@@H](CCC(=O)O)C(=O)N[C@@H](CCC(N)=O)C(=O)N[C@@H](C)C(=O)N[C@@H](CCC(=O)O)C(=O)N[C@@H](CCCCN)C(=O)N[C@@H](CC(N)=O)C(=O)N[C@@H](CCCCN)C(=O)N[C@@H](CCC(N)=O)C(=O)N[C@H](C(=O)N[C@@H](CC(C)C)C(=O)N[C@@H](CCC(=O)O)C(=O)N[C@@H](CCC(N)=O)C(=O)N[C@H](C(N)=O)C(C)C)[C@@H](C)CC)[C@@H](C)CC)[C@@H](C)CC)C(C)C)C(C)C
B2: SEQ ID NO 151 (peptide)
peptide: IVLSLD[dV]PIKLK([γGlu-C16 diacid])QILLKQERQKKQREQAEKNKQILEQV-NH2
modifications: N-terminus assumed
SMILES: CC[C@H](C)[C@H](N)C(=O)N[C@H](C(=O)N[C@@H](CC(C)C)C(=O)N[C@@H](CO)C(=O)N[C@@H](CC(C)C)C(=O)N[C@@H](CC(=O)O)C(=O)N[C@@H](C(=O)N1CCC[C@H]1C(=O)N[C@H](C(=O)N[C@@H](CCCCN)C(=O)N[C@@H](CC(C)C)C(=O)N[C@@H](CCCCNC(=O)CC[C@H](NC(=O)CCCCCCCCCCCCCCC(=O)O)C(=O)O)C(=O)N[C@@H](CCC(N)=O)C(=O)N[C@H](C(=O)N[C@@H](CC(C)C)C(=O)N[C@@H](CC(C)C)C(=O)N[C@@H](CCCCN)C(=O)N[C@@H](CCC(N)=O)C(=O)N[C@@H](CCC(=O)O)C(=O)N[C@@H](CCCNC(=N)N)C(=O)N[C@@H](CCC(N)=O)C(=O)N[C@@H](CCCCN)C(=O)N[C@@H](CCCCN)C(=O)N[C@@H](CCC(N)=O)C(=O)N[C@@H](CCCNC(=N)N)C(=O)N[C@@H](CCC(=O)O)C(=O)N[C@@H](CCC(N)=O)C(=O)N[C@@H](C)C(=O)N[C@@H](CCC(=O)O)C(=O)N[C@@H](CCCCN)C(=O)N[C@@H](CC(N)=O)C(=O)N[C@@H](CCCCN)C(=O)N[C@@H](CCC(N)=O)C(=O)N[C@H](C(=O)N[C@@H](CC(C)C)C(=O)N[C@@H](CCC(=O)O)C(=O)N[C@@H](CCC(N)=O)C(=O)N[C@H](C(N)=O)C(C)C)[C@@H](C)CC)[C@@H](C)CC)[C@@H](C)CC)C(C)C)C(C)C
B3: SEQ ID NO 150 (peptide)
peptide: IVLSLD[dV]PIKLK([AEEA-AEEA-γGlu-C18 diacid])QILLKQERQKKQREQAEKNKQILEQV-NH2
modifications: N-terminus assumed
SMILES: CC[C@H](C)[C@H](N)C(=O)N[C@H](C(=O)N[C@@H](CC(C)C)C(=O)N[C@@H](CO)C(=O)N[C@@H](CC(C)C)C(=O)N[C@@H](CC(=O)O)C(=O)N[C@@H](C(=O)N1CCC[C@H]1C(=O)N[C@H](C(=O)N[C@@H](CCCCN)C(=O)N[C@@H](CC(C)C)C(=O)N[C@@H](CCCCNC(=O)COCCOCCNC(=O)COCCOCCNC(=O)CC[C@H](NC(=O)CCCCCCCCCCCCCCCCC(=O)O)C(=O)O)C(=O)N[C@@H](CCC(N)=O)C(=O)N[C@H](C(=O)N[C@@H](CC(C)C)C(=O)N[C@@H](CC(C)C)C(=O)N[C@@H](CCCCN)C(=O)N[C@@H](CCC(N)=O)C(=O)N[C@@H](CCC(=O)O)C(=O)N[C@@H](CCCNC(=N)N)C(=O)N[C@@H](CCC(N)=O)C(=O)N[C@@H](CCCCN)C(=O)N[C@@H](CCCCN)C(=O)N[C@@H](CCC(N)=O)C(=O)N[C@@H](CCCNC(=N)N)C(=O)N[C@@H](CCC(=O)O)C(=O)N[C@@H](CCC(N)=O)C(=O)N[C@@H](C)C(=O)N[C@@H](CCC(=O)O)C(=O)N[C@@H](CCCCN)C(=O)N[C@@H](CC(N)=O)C(=O)N[C@@H](CCCCN)C(=O)N[C@@H](CCC(N)=O)C(=O)N[C@H](C(=O)N[C@@H](CC(C)C)C(=O)N[C@@H](CCC(=O)O)C(=O)N[C@@H](CCC(N)=O)C(=O)N[C@H](C(N)=O)C(C)C)[C@@H](C)CC)[C@@H](C)CC)[C@@H](C)CC)C(C)C)C(C)C
B4: SEQ ID NO 13 (peptide)
peptide: IVLSLD[dV]PIKLK([γGlu-C16 diacid])QILLKQERQKKQREQAEKNVQILEQV-NH2
modifications: N-terminus assumed
SMILES: CC[C@H](C)[C@H](N)C(=O)N[C@H](C(=O)N[C@@H](CC(C)C)C(=O)N[C@@H](CO)C(=O)N[C@@H](CC(C)C)C(=O)N[C@@H](CC(=O)O)C(=O)N[C@@H](C(=O)N1CCC[C@H]1C(=O)N[C@H](C(=O)N[C@@H](CCCCN)C(=O)N[C@@H](CC(C)C)C(=O)N[C@@H](CCCCNC(=O)CC[C@H](NC(=O)CCCCCCCCCCCCCCC(=O)O)C(=O)O)C(=O)N[C@@H](CCC(N)=O)C(=O)N[C@H](C(=O)N[C@@H](CC(C)C)C(=O)N[C@@H](CC(C)C)C(=O)N[C@@H](CCCCN)C(=O)N[C@@H](CCC(N)=O)C(=O)N[C@@H](CCC(=O)O)C(=O)N[C@@H](CCCNC(=N)N)C(=O)N[C@@H](CCC(N)=O)C(=O)N[C@@H](CCCCN)C(=O)N[C@@H](CCCCN)C(=O)N[C@@H](CCC(N)=O)C(=O)N[C@@H](CCCNC(=N)N)C(=O)N[C@@H](CCC(=O)O)C(=O)N[C@@H](CCC(N)=O)C(=O)N[C@@H](C)C(=O)N[C@@H](CCC(=O)O)C(=O)N[C@@H](CCCCN)C(=O)N[C@@H](CC(N)=O)C(=O)N[C@H](C(=O)N[C@@H](CCC(N)=O)C(=O)N[C@H](C(=O)N[C@@H](CC(C)C)C(=O)N[C@@H](CCC(=O)O)C(=O)N[C@@H](CCC(N)=O)C(=O)N[C@H](C(N)=O)C(C)C)[C@@H](C)CC)C(C)C)[C@@H](C)CC)[C@@H](C)CC)C(C)C)C(C)C

Molecular target: T1, CRF1R receptor (UniProt P34998 24-415, limits assumed)
T1 sequence (looked up): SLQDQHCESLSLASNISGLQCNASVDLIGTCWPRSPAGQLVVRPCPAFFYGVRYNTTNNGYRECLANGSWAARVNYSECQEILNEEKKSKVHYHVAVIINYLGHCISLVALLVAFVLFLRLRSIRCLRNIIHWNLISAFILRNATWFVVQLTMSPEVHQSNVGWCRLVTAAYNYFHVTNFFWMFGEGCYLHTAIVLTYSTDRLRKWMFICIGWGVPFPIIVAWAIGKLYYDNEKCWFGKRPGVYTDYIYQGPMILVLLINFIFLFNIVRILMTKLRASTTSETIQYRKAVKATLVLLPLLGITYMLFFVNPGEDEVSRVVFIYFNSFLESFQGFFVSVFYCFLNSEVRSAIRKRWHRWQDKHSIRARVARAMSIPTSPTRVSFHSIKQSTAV
Experiment: cell-based or functional assay

| Binder | EC50 [nM] | Emax (% I) [%] |
| --- | --- | --- |
| B1 | 100 | 22 |
| B2 | 25.3 | 53 |
| B3 |  | 38 |
| B4 | > 250 | 24 |
